Assay results from patent US20240101645A1 (HENRY M JACKSON FOUNDATION FOR THE ADVANCEMENT OF MILITARY …, published 2024).

Tests used:
[1] = target: T1, HCoV-229E spike antigens (bead panel) (HCoV-229E, UniProt P15423 16-1115); experiment: multiplex bead assay
T1 sequence: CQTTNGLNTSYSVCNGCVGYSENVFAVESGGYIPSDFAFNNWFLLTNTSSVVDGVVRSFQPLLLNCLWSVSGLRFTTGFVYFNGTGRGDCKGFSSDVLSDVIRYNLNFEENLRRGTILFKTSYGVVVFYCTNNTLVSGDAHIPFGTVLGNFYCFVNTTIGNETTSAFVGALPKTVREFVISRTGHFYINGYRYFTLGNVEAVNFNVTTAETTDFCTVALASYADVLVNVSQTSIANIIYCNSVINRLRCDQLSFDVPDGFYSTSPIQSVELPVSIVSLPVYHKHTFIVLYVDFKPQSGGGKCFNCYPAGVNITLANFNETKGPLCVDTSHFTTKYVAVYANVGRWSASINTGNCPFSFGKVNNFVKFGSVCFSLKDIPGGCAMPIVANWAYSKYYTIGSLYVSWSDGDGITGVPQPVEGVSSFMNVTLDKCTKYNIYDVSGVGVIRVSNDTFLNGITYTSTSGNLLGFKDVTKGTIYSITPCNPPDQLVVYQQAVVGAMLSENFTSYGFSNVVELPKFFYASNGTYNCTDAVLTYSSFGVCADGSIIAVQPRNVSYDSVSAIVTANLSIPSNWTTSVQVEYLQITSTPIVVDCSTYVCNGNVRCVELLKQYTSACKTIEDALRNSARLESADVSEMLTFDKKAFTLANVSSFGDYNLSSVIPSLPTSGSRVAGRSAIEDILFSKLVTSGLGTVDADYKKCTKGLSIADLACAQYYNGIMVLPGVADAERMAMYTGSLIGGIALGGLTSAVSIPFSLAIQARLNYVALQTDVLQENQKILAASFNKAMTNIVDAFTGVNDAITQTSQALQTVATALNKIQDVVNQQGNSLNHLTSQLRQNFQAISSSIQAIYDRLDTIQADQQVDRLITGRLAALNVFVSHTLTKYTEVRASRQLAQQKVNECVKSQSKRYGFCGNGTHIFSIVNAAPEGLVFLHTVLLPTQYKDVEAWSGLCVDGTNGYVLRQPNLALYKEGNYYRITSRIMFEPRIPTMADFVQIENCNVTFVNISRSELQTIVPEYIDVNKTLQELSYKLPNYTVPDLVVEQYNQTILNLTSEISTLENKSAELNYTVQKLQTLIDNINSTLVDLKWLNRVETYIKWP

[2] = target: T2, HCoV-NL63 spike antigens (bead panel) (HCoV-NL63, UniProt Q6Q1S2 19-1296); experiment: multiplex bead assay
T2 sequence: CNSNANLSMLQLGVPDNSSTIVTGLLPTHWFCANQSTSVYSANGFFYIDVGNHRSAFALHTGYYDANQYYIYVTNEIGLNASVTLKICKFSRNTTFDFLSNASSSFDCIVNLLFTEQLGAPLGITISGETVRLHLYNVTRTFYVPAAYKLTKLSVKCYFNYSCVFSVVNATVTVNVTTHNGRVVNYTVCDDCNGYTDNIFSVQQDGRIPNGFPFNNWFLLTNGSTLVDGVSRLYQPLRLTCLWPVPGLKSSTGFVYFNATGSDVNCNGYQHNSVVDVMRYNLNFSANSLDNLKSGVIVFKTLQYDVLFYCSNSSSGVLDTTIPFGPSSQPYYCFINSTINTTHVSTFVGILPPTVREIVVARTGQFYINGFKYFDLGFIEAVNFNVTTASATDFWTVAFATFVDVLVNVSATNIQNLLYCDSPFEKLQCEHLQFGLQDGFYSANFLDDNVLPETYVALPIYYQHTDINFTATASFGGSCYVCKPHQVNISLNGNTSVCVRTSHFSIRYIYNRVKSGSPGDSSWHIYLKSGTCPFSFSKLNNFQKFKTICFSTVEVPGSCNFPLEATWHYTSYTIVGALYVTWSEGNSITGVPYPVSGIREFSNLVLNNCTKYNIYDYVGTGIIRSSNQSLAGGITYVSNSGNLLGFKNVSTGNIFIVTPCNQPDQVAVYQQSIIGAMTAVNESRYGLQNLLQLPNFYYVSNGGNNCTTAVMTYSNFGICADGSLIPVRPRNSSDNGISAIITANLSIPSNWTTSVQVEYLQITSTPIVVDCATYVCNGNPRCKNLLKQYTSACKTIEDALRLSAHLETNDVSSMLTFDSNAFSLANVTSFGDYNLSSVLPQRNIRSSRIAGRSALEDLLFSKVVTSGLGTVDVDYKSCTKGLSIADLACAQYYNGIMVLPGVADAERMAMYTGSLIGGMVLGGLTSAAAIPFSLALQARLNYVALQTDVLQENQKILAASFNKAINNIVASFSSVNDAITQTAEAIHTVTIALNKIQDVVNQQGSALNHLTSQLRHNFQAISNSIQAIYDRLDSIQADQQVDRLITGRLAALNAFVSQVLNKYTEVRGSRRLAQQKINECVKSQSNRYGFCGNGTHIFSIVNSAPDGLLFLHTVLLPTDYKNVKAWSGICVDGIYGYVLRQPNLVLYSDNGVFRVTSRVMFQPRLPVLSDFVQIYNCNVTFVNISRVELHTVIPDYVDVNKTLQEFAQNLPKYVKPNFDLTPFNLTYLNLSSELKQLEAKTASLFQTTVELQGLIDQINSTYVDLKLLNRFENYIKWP

B1: COV_1144 (antibody, V domains shown)
VH: EVQLVESGGGLVQPGGSLRLSCAASGFTFRSFWMSWVRQAPGKGLEWVANIKEDASEKHYVDPVKGRFTISRDNAKNSLYLQLNSLRAEDMAVYYCARVGRGYCTNGLCYTAFEYWGQGTLVTVSS
VL: DIQMTQSPSSLSASVGDRVTITCRTSQSISNYLNWYQQKPGKAPKLLIYAASSLQSGVPSRFSGSGSGTDFTLTISSLQPEDFATYYCQQSYSTAWTFGQGTKVEIRR
notes: human IgG1
[1]
  binding result: no binding
[2]
  binding result: no binding

B2: COV_1201 (antibody, V domains shown)
VH: QVQLVQSGAEVKKPGASMKVSCKASGYTFTGYYIHWVRQAPGQGLEWMGRINPNSGGTNYAQKFQGRVTMTRDTSISTAYMELSRLRSDDTAVYYCAREYYYVPYGMDVWGQGTTVTVSS
VL: QSALTQPASVSGSPGQSITISCTGTSSDVGGYNFVSWYQHHPGKAPKLMIYEVSNRPSGVSNRFSGSKSGNTASLTISGLQAEDEADYYCSSYTSSSTYVFGTGTKVTVL
notes: human IgG1
[1]
  binding result: no binding
[2]
  binding result: no binding

B3: COV_2123 (antibody, V domains shown)
VH: EVQLVESGGGVVQPGRSLRLSCAASGFTFSSYAMHWVRQAPGKGLEWVAVLSYDGSNKYNADSVKGRFTISRDNSKNTLYLQMNSLRVEDTAMYYCARDGVSVTMVRGVIGPLCDYWGQGTLVTVSS
VL: not shown
notes: human IgG1
[2]
  binding result: no binding

B4: COV_1172 (antibody, V domains shown)
VH: QVQLQESGPGLVKPSETLSLTCTVSGGSIRSYYWSWIRQPPGKGLEWIGYIYYSGSTNYSPSLKSRVTISVDTSKNQFSLKLNSVTAADTAVYYCARRGLGYCSGDSCSNAFDIWGQGTMVTVSS
VL: DIQMTQSPSSLSASVGDRVTITCRASQSISSYLNWYQQKPGRAPELLIYDASSLQSGVPSGFSGSGSGTDFTLTISSLQPEDFATYYCQQSYSTPFTFGPGTKVDIKR
notes: human IgG1
[1]
  binding result: no binding
[2]
  binding result: no binding

B5: COV_1151 (antibody, V domains shown)
VH: QVQVQQWGAGLLKPSETLSLTCAVYGGSFNNYYWSWIRQPPGKGLEWIGEINHSGSTNYNPSLMSRVTISVDTSKNQFSLKLTSVTAADTAVYFCARGLPVTTFFSSYYGMDVWGQGTTVTVSS
VL: EIVLTQSPGTLSLSPGERATLSCRASQSVSRTYLAWYQQKPGQAPRLLIYGASSRATGIPDRFSGSGSGTDFTLTISRLEPEDFAVYYCQHYGSSPWTFGQGTKVEIRR
notes: human IgG1
[1]
  binding result: no binding
[2]
  binding result: no binding

B6: COV_1149 (antibody, V domains shown)
VH: QVQLVESGGGVVQPGRSLRLSCAASGFTFSSYGMHWVRQAPGKGLEWVAVISYDGSNKYYADSVKGRFTISRDNSKNTLYLQMNSLRAEDTAVYYCAKTGGGYSYGLGNVWGQGTLVTVSS
VL: QSALTQPASVSGSPGQSITISCTGTSSDVGGYNYVSWYQQHPGKAPKLMIYDVSNRPSGVSNRFSGSKSGNTASLTISGLQAEDEADYYCSSYTSSSTLVVFGGGTKLTVLG
notes: human IgG1
[1]
  binding result: no binding
[2]
  binding result: no binding

B7: COV_2077 (antibody, V domains shown)
VH: QVQLQESGPGLVKPSETLSLTCTVSGGSISSYSWSWIRQPPGKGLEWIGYIYYSGSTNYNPSLKSRVTISVDTSKNQFSLKLSSVTAADTAVYYCARESMGRYSLELRQPESAFDYWGRGTLVTVSS
VL: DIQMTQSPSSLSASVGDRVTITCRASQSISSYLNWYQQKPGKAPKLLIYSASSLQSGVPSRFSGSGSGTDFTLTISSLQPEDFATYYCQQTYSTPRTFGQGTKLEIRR
notes: human IgG1
[1]
  binding result: no binding
[2]
  binding result: no binding

B8: COV_2048 (antibody, V domains shown)
VH: QVQLQESGPGLVKPSETLSLTCTVSGGSISNTSYYWGWIRQPPGKGLEWIGSIYRSGSTYYNPSLKSRVTISIDTSKNQFTLKLSSVTAADTAVYYCARDYYGDYSAKPMEYWGQGTLVTVSS
VL: QSALTQPRSVSGSPGQSVTISCTGTSSDVGGYNYVSWYQQHPGKAPKLLIYDVSKRPSGVPDRFSGSKSGNTASLTISGLQAEDEADYYCCSYAGSYVVFGGGAKLTVLG
notes: human IgG1
[1]
  binding result: no binding
[2]
  binding result: no binding

B9: COV_2056 (SEQ ID NO:792/797) (antibody, V domains shown)
VH: EVQLVESGGGVVQPGRSLRLSCAASGFTFSIYGMHWVRQAPGKGLEWVALISYDGTNKYYADSVKGRFSISRDDSKNTLYLQMNSLRPEDTAVYYCAKVLMMGDSSGFSLGDAFDIWGQGTMVTVSS
VL: DIQMTQSPSSVSASVGDRVTITCRASQGISNWLAWYQQKPGKAPKLLIYAASSLQSGVPSRFSGSVSGTDFTLTISSLQPEDFATYYCQQANSFPLTFGGGTKVDIKR
[1]
  binding result: no binding
[2]
  binding result: no binding

B10: COV_2004 (antibody, V domains shown)
VH: QVQLVQSGAEVKKPGASVKVSCKASGYTFTGYYMHWVRQAPGQGLEWMGRINPSSGGTNYAQKFQGRVTMTRDTSISTAYMELSSLRSDDTAVYYCATDGDDGENWFDPWGQGTLVIVSS
VL: DIQMTQSPSSLSASVGDRVTITCRASQGISSWLAWYQQKPEKAPKSLIYAASSLQSGVPSRFSGSGSGTDFTLTISSLQPEDFATYYCQQYNSYPYTFGQGTKLEIK
notes: human IgG1
[1]
  binding result: no binding
[2]
  binding result: no binding

B11: COV_1170 (antibody, V domains shown)
VH: QVQLVESGGGVVQPGRSLRLSCAASGFTFSTYAMHWVRQAPGKGLEWVALISYDGSNKYYADSVKGRFTISRDNSKNTLDLQMNSLRAEDTAVYYCARSLGGYRTGFDYWGQGTLVTVSS
VL: DIQLTQSPSFLSASVGDRVTITCRASQGISSYLAWYQQKPGKAPKLLIYAASTLQSGVPSRFSGSGSGTEFTLTISSLQPEDFATYYCQQLNSYPPFTFGPGTKVDIKR
notes: human IgG1
[1]
  binding result: no binding
[2]
  binding result: no binding

B12: COV_2093 (antibody, V domains shown)
VH: EVQLVESGGGLVQPGGSLRLSCAASGFMFNRFWMSWVRQAPGKGLEWVTNIKQDGSEKNYVDSVKGRFTISRDNAKNSLYLQMNSLRAEDTAVYYCARDGLYYDFRSPSPFYGMDVWGQGTTVTVSS
VL: DIQMTQSPSSLSASVGDRVTITCRASQSISSYLNWYQHKSGKAPKLLIYAASRLQSGVPSRFSGSGSGTDFTLTIVSLQPEDLATYYCQQSYSTPRTFGGGTKVEIKR
notes: human IgG1
[1]
  binding result: no binding
[2]
  binding result: no binding

B13: COV_2008 (antibody, V domains shown)
VH: QVRVVQSGAEVKNPGASVKVSCKVSGYTLTELSIHWVRQAPGNGLEWMGGFDPEDGETIYAQKFQGRVTMTEDTSTDTAYMELSSLRSDDTAVYYCATAGAITGTPRNFYYYYGMDVWGQGTTVTVSS
VL: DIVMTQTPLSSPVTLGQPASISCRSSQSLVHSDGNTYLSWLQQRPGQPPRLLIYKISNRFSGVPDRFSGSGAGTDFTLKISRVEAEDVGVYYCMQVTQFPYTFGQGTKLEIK
notes: human IgG1
[1]
  binding result: no binding
[2]
  binding result: no binding

B14: COV_1166 (antibody, V domains shown)
VH: EVQLVESGGGLVQPGGSLRLSCAVSGFTFRSFWMSWVRQTPGKGLEWVANIKEDGSEKYYVDSVKGRFTISRDNAKNSLYLQMNSLRAEDTAVYYCAREGRWELLGFAFDIWGQGTMVTVSS
VL: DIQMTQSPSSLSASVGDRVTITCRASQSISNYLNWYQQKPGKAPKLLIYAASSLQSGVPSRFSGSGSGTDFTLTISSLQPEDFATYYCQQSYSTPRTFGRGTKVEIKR
notes: human IgG1
[1]
  binding result: no binding
[2]
  binding result: no binding
